Measured values taken from PMC7117682 (2020).

Biological target: CD47 naturally expressed on CD47(+) Jurkat T lymphoma cells (human (endogenous in Jurkat), UniProt Q08722 19-323)
Assay: FACS

Chain of CD47 naturally expressed on CD47(+) Jurkat T lymphoma cells (Q08722 19-323): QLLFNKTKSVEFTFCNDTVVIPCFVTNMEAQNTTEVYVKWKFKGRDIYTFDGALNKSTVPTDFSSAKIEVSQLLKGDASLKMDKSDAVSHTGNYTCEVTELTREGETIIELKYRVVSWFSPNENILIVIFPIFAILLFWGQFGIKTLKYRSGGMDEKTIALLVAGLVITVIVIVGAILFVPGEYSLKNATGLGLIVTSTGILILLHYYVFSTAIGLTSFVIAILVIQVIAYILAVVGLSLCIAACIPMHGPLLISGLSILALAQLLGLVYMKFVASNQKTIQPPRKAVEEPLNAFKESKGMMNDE

EC50: 2000 nM
B1: SIRPα-Avi-biotin (soluble, biotin-conjugated SIRPα d1 construct; allelic variant not stated for the experiment) (domain or fragment)
chain: EELQVIQPDKSVLVAAGETATLRCTATSLIPVGPIQWFRGAGPGRELIYNQKEGHFPRVTTVSDLTKRNNMDFSIRIGNITPADAGTYYCVKFRKGSPDDVEFKSG
modifications: biotin (biotin-conjugated, SIRPα-Avi-biotin)
